Source: publication doi:10.1101/2025.01.30.635804, “Emergence of specific binding and catalysis from a designed generalist binding protein” (bioRxiv, 2025)

B1: tKSI: Natural enzyme; ref 68 (protein, UniProt P00947 1-125, looked up)
Steroid Delta-isomerase: MNTPEHMTAVVQRYVAALNAGDLDGIVALFADDATVEDPVGSEPRSGTAAIREFYANSLKLPLAVELTQEVRAVANEAAFAFTVSFEYQGRKTVVAPIDHFRFNGAGKVVSMRALFGEKNIHAGA
B2: D38N tKSI: Single mutation of tKSI; ref 68 (protein, UniProt P00947 1-125, looked up, variant D38N)
Steroid Delta-isomerase: MNTPEHMTAVVQRYVAALNAGDLDGIVALFADDATVENPVGSEPRSGTAAIREFYANSLKLPLAVELTQEVRAVANEAAFAFTVSFEYQGRKTVVAPIDHFRFNGAGKVVSMRALFGEKNIHAGA

Assay: Kinetic parameters of reported proteins catalyzing the Kemp elimination (literature)
Format: biochemical
Conditions: literature kcat/KM (M-1s-1) divided by total number of amino acids
Description: Extended Data Table 4 çKinetic parameters of reported proteins catalyzing the Kemp elimination of 5-nitrobenzisoxazole with base-mediated mechanism.
Protein Description kcat/KM, kcat, KM, Amino Ref
AlleyCat Single mutation of 5.8 ND ND 0.08 64
Lysozyme Double mutation of 1.8 ND ND 0.01 138 […]

Molecule | Amino acid efficiency
B1 | 0.02
B2 | 140
